Test results published in US20260022166A1 (JIANGSU HENGRUI MEDICINE, published 2026).

B1: AMG157 (antibody, human IgG2, lambda, V domains shown)
VH: QMQLVESGGGVVQPGRSLRLSCAASGFTFRTYGMHWVRQAPGKGLEWVAVIWYDGSNKHYADSVKGRFTITRDNSKNTLNLQMNSLRAEDTAVYYCARAPQWELVHEAFDIWGQGTMVTVSS
VL: SYVLTQPPSVSVAPGQTARITCGGNNLGSKSVHWYQQKPGQAPVLVVYDDSDRPSWIPERFSGSNSGNTATLTISRGEAGDEADYYCQVWDSSSDHVVFGGGTKLTVLG
B2: hu3-13 (antibody, human IgG1, kappa, V domains shown)
VH: EVQLVQSGAEVKKPGASVKVSCKASGYTFTDDYMNWVRQAPGQRLEWMGIISPYNGGTSYNQKFKGRVTLTVDKSASTAYMELSSLRSEDTAVYYCAREDYDYDGYAMDYWGQGTTVTVSS
VL: EIVLTQSPATLSLSPGERATLSCRASSSVSYMHWYQQKPGQAPRPWIYATSNLASGVPARFSGSGSGTSYTLTISRLEPEDFAVYYCQQSDSGREFGGGTKVEIKR
B3: hu119-03 (antibody, human IgG1, kappa)
heavy: EVQLVQSGAEVKKPGSSVKVSCKASGFTFSTYNMHWVKHAPGQGLEWIGAIYPGNGETSYNQKFKDRATLTVDKSTSTAYMELSSLRSEDTAVYYCAREDDYGEGYFDVWGQGTTVTVSSASTKGPSVFPLAPSSKSTSGGTAALGCLVKDYFPEPVTVSWNSGALTSGVHTFPAVLQSSGLYSLSSVVTVPSSSLGTQTYICNVNHKPSNTKVDKKVEPKSCDKTHTCPPCPAPELLGGPSVFLFPPKPKDTLYITREPEVTCVVVDVSHEDPEVKFNWYVDGVEVHNAKTKPREEQYNSTYRVVSVLTVLHQDWLNGKEYKCKVSNKALPAPIEKTISKAKGQPREPQVYTLPPSRDELTKNQVSLTCLVKGFYPSDIAVEWESNGQPENNYKTTPPVLDSDGSFFLYSKLTVDKSRWQQGNVFSCSVMHEALHNHYTQKSLSLSPGK
light: DIVMTQSPDSLAVSLGERATINCRASESVDNSGLSFMHWYQQKPGQPPKLLIYRASNLGSGVPDRFSGSGSGTDFTLTISSLQAEDVAVYYCQQINTDPLTFGQGTKLEIKRTVAAPSVFIFPPSDEQLKSGTASVVCLLNNFYPREAKVQWKVDNALQSGNSQESVTEQDSKDSTYSLSSTLTLSKADYEKHKVYACEVTHQGLSSPVTKSFNRGEC
notes: humanized, IgG1-YTE/kappa
B4: hu119-07 (antibody, human IgG1, kappa)
heavy: EVQLVQSGAEVKKPGSSVKVSCKASGFTFSTYNMHWVKHAPGQGLEWIGAIYPGNGETSYNQKFKDRATLTVDKSTSTAYMELSSLRSEDTAVYYCAREDDYGEGYFDVWGQGTTVTVSSASTKGPSVFPLAPSSKSTSGGTAALGCLVKDYFPEPVTVSWNSGALTSGVHTFPAVLQSSGLYSLSSVVTVPSSSLGTQTYICNVNHKPSNTKVDKKVEPKSCDKTHTCPPCPAPELLGGPSVFLFPPKPKDTLYITREPEVTCVVVDVSHEDPEVKFNWYVDGVEVHNAKTKPREEQYNSTYRVVSVLTVLHQDWLNGKEYKCKVSNKALPAPIEKTISKAKGQPREPQVYTLPPSRDELTKNQVSLTCLVKGFYPSDIAVEWESNGQPENNYKTTPPVLDSDGSFFLYSKLTVDKSRWQQGNVFSCSVMHEALHNHYTQKSLSLSPGK
light: DIVLTQSPDSLAVSLGERATINCRASESVDNSGLSFMHWYQQKPGQPPKLLIYRASNLGSGVPDRFSGSGSGTDFTLTISSLQAEDVAVYYCQQINTDPLTFGQGTKLEIKRTVAAPSVFIFPPSDEQLKSGTASVVCLLNNFYPREAKVQWKVDNALQSGNSQESVTEQDSKDSTYSLSSTLTLSKADYEKHKVYACEVTHQGLSSPVTKSFNRGEC
notes: humanized, IgG1-YTE/kappa
B5: hu119-11 (antibody, human IgG1, kappa, V domains shown)
VH: EVQLVQSGAEVKKPGSSVKVSCKASGFTFSTYNMHWVKHAPGQGLEWIGAIYPGNGETSYNQKFKDRATLTVDKSTSTAYMELSSLRSEDTAVYYCAREDDYGEGYFDVWGQGTTVTVSS
VL: DIVMTQSPDSLAVSLGERATINCRASESVDNSGLSFMHWYQQKPGQPPKLLLYRASNLGSGIPDRFSGSGSGTDFTLTISSLQAEDVAVYYCQQINTDPLTFGQGTKLEIKR
notes: humanized, IgG1-YTE/kappa
B6: hu119-13 (antibody, human IgG1, kappa, V domains shown)
VH: EVQLVQSGAEVKKPGSSVKVSCKASGFTFSTYNMHWVKHAPGQGLEWIGAIYPGNGETSYNQKFKDRATLTVDKSTSTAYMELSSLRSEDTAVYYCAREDDYGEGYFDVWGQGTTVTVSS
VL: EIVLTQSPATLSLSPGERATLSCRASESVDNSGLSFMHWYQQKPGQAPRLLIYRASNLGSGIPARFSGSGSGTDFTLTISSLEPEDFAVYYCQQINTDPLTFGQGTKLEIKR
notes: humanized, IgG1-YTE/kappa
B7: hu119-30 (antibody, human IgG1, kappa, V domains shown)
VH: EAQLVQSGAEVKKPGSSVKVSCKASGFTFSTYNMHWVRQAPGQGLEWIGAIYPGNGETSYNQKFKDRATLTVDKSTRTAYMELSSLRSEDTAVYYCAREDDYGEGYFDVWGQGTTVTVSS
VL: DIVLTQSPATLSLSPGERATLSCRASESVDSSGLSFMHWYQQKPGQPPRLLLYRASNLGSGIPARFSGSGSGTDFTLTISSLEPEDFAVYYCQQINTDPLTFGQGTKLEIKR
B8: hu119-18 (antibody, human IgG1, kappa)
heavy: EVQLVQSGAEVKKPGSSVKVSCKASGFTFSTYNMHWVKHAPGQGLEWIGAIYPGNGETSYNQKFKDRATLTVDKSTSTAYMELSSLRSEDTAVYYCAREDDYGEGYFDVWGQGTTVTVSSASTKGPSVFPLAPSSKSTSGGTAALGCLVKDYFPEPVTVSWNSGALTSGVHTFPAVLQSSGLYSLSSVVTVPSSSLGTQTYICNVNHKPSNTKVDKKVEPKSCDKTHTCPPCPAPELLGGPSVFLFPPKPKDTLYITREPEVTCVVVDVSHEDPEVKFNWYVDGVEVHNAKTKPREEQYNSTYRVVSVLTVLHQDWLNGKEYKCKVSNKALPAPIEKTISKAKGQPREPQVYTLPPSRDELTKNQVSLTCLVKGFYPSDIAVEWESNGQPENNYKTTPPVLDSDGSFFLYSKLTVDKSRWQQGNVFSCSVMHEALHNHYTQKSLSLSPGK
light: EIVLTQSPATLSLSPGERATLSCRASESVDNSGLSFMHWYQQKPGQPPRLLLYRASNLGSGIPARFSGSGSGTDFTLTISSLEPEDFAVYYCQQINTDPLTFGQGTKLEIKRTVAAPSVFIFPPSDEQLKSGTASVVCLLNNFYPREAKVQWKVDNALQSGNSQESVTEQDSKDSTYSLSSTLTLSKADYEKHKVYACEVTHQGLSSPVTKSFNRGEC
notes: humanized, IgG1-YTE/kappa
B9: hu179-08 (antibody, human IgG1, kappa)
heavy: EVQLVQSGAEVKKPGSSVKVSCKASGYTFSNYLIEWVRQAPGQGLEWIGVIDPGNGDTNYNENFKGRATLTADKSTSTAYIELSSLRSEDTAVYYCAREDNTGTAFDYWGQGTTVTVSSASTKGPSVFPLAPSSKSTSGGTAALGCLVKDYFPEPVTVSWNSGALTSGVHTFPAVLQSSGLYSLSSVVTVPSSSLGTQTYICNVNHKPSNTKVDKKVEPKSCDKTHTCPPCPAPELLGGPSVFLFPPKPKDTLYITREPEVTCVVVDVSHEDPEVKFNWYVDGVEVHNAKTKPREEQYNSTYRVVSVLTVLHQDWLNGKEYKCKVSNKALPAPIEKTISKAKGQPREPQVYTLPPSRDELTKNQVSLTCLVKGFYPSDIAVEWESNGQPENNYKTTPPVLDSDGSFFLYSKLTVDKSRWQQGNVFSCSVMHEALHNHYTQKSLSLSPGK
light: DIVMTQTPLSLSVTPGQPASISCKASQSVSSDVTWYLQKPGQSPQLLIYYVSNHYTGVPDRFSGSGSGTDFTLKISRVEAEDVGVYYCQQHHRFPLTFGQGTKLEIKRTVAAPSVFIFPPSDEQLKSGTASVVCLLNNFYPREAKVQWKVDNALQSGNSQESVTEQDSKDSTYSLSSTLTLSKADYEKHKVYACEVTHQGLSSPVTKSFNRGEC
notes: humanized, IgG1-YTE/kappa
B10: hu179-33 (antibody, human IgG1, kappa, V domains shown)
VH: EVQLVQSGAEVKKPGSSVKVSCKASGYTFSNYLIEWVRQAPGQGLEWIGVIDPGVGDTNYNENFKGRATLTADKSTSTAYIELSSLRSEDTAVYYCAREDNTGTAFDYWGQGTTVTVSS
VL: SIVMTQTPLSLSVTPGQPASISCKASQSVSSDVTWYLQKPGQSPQLLIYYVSEHYTGVPDRFSGSGYGTDFTLKISRVEAEDVGVYYCQQHHRFPLTFGQGTKLEIKR
B11: hu199-36 (antibody, human IgG1, kappa, V domains shown)
VH: EVQLVQSGAEVKKPGASVKVSCKASGYTFTTYWMHWVKQAPGQGLEWMGMIDPSDSETTLIQKFKDKVTLTVDKSTSTAYMELSSLRSEDTAVYYCARTLDGYYDYWGQGTTVTVSS
VL: DIQMTQSPSSLSASVGDRVTITCRASENIYSYLAWYQQKPGKSPQLLVYFAKTLAEGVPSRFSGSVSGTQFTLTISSLQPEDFATYYCQHHYGTPWTFGGGTKVEIKR

Tests used:
[1] = target: Fc-tagged human TSLP antigen (huTSLP-Fc) (human); assay: cell-based or functional assay
native TSLP = native TSLP (human, UniProt Q969D9 29-159); assay: cell-based or functional assay
[2] = target: T1, His-tagged human TSLP antigen (huTSLP-his) (human); assay: ELISA, coated huTSLP-his
T1 construct: also called Human TSLP-his
Method: After discarding the liquid, 200 μl/well of blocking solution with 5% skimmed milk (Bright Dairy skimmed milk powder) diluted in PBS was added and incubated in a 37° C. incubator for 2 hours for blocking. After blocking was over, the blocking solution was discarded, and the plates were washed with PBST buffer (PBS containing 0.1% tween-20, pH 7.4) for 3 times. […] After incubation was over, the plates were washed with PBST for 3 times. […] After washing the plate with PBST for 6 times, 50 μl/well TMB chromogenic substrate (KPL, 52-00-03) was added and incubated at room temperature for 10-15 min, and 50 μl/well 1 M H₂SO₄ was added to stop the reaction. The absorption value was read by using a NOVOStar microplate reader at 450 nm.

| Binder | IC50 of inhibiting TSLP-induced proliferation of BaF3 cells overexpressing TSLPR/IL7R [1] [nM] | IC50 of inhibiting the proliferation of BaF3-TLSPR/IL7R cells induced by native TSLP (native TSLP) [nM] | EC50 [2] [nM] |
| --- | --- | --- | --- |
| B1 | 0.573 | – | – |
| B2 | 0.444 | 0.289 | – |
| B3 | – | – | 0.159 |
| B4 | – | – | 0.213 |
| B5 | – | – | 0.174 |
| B6 | – | – | 0.344 |
| B7 | 0.43 | 1.53 | – |
| B8 | – | – | 0.345 |
| B9 | – | – | 1.02 |
| B10 | 0.409 | 0.0228 | – |
| B11 | 0.476 | – | – |
